Positions count from the first letter of the chain named.

To fix the notation:
B1: MUC1 gB06 (antibody, V domains shown)
VH: EVQLVQSGAEVKKPGATVKISCKVSGYTFTDHTMHWIKQRPGKGLEWMGYFYPRDDSTNYNEKFKGRVTLTADKSTDTAYMELSSLRSEDTAVYYCARGLRYALDYWGQGTLVTVSS
VL: EIVLTQSPATLSLSPGERATLSCRASSSVSSSYLYWYQQKPGQAPRLWIYGTSNLASGVPARFSGSGSGTDYTLTISSLEPEDAAVYYCHQYAWSPPTFGQGTKLEIK
notes: Monoclonal antibody; also called B06 antibody; anti-MUC1 antibody B06
B2: MUC1 H02 (antibody, V domains shown)
VH: B1 VH
VL: B1 VL with Y50I, A93S
notes: Monoclonal antibody; It was detected with an anti-human Fc secondary, and DSF reports CH2 and Fab regions
B3: MUC1 G12 (antibody, V domains shown)
VH: B1 VH
VL: B1 VL with S30G, Y33N, G51R, T52S, S53T, N54K, A93R
notes: as for B2

T2 sequence (peptide, as listed by the source): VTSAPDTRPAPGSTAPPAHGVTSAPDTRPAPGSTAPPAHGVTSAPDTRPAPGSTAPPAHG

For the first assay, the target named is T1, recombinant 20 mer MUC1 glycosylated-biotin (Tn (GalNac) antigen or sialyl Tn (Neu5Acα2-6GalNAc) antigen modifications on some of the S/T residues; biotin conjugated to the N-terminus).
T1 construct: also called 20mer glycosylated MUC1 peptide
T1 sequence (peptide, as listed by the source): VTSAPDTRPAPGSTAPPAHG
As to the kind of experiment: ELISA, peptide coated on plate, anti-Fc HRP detection. Here is the method: (§1) MUC1 ELISA: Antigens were coated directly on a Streptavidin (Pierce, 15500) or Maxisorp (VWR, 62409-024) 96-well plate at 100ng/well in PBS. Coated plates were incubated at 4° C. overnight. The plates were blocked with casein blocking buffer (Thermo Fisher, 37528) and washed with PBS-Tween-20. Antibodies were serially diluted in PBS, added to the coated wells and incubated for 1h at room temperature with shaking. To test for stickiness, antibodies were also added to uncoated, blocked wells. Peroxidase (HRP)-conjugated anti-Fc secondary (Jackson Immunoresearch, #109-035-098) was used for detection, followed by a […] substrate (Thermo Fisher, 34028) and H2S04 quench. Absorbance was read at 450 nm on a Molecular Devices plate reader.
B1: the binding result is given as “binds”.

On to B2, for which the binding result was “binds”.

Take B3: the binding result is reported as “binds”.

A further assay concerns the target T2, recombinant 60 mer MUC1 non-glycosylated-biotin (biotin conjugated to the N-terminus).
T2 construct: Not glycosylated; also called 60mer MUC1 non-glycosylated peptide
The description is as above. Here is the method: as §1
Turning to B1, the binding result is “no binding”.

Take B2: the binding result is reported as “no binding”.

For the molecule B3, the binding result is given as “no binding”.

In another assay the target is T3, decoy peptide (Tn (GalNac) antigen or sialyl Tn (Neu5Acα2-6GalNAc) antigen modifications on some of the S/T residues).
T3 construct: also called glycosylated decoy peptide
T3 peptide: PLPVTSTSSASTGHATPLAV
The description is as above. How it is done:
as §1
For B1, the binding result is listed as “no binding”.

Regarding B2, the binding result is “no binding”.

Regarding B3, the binding result is “no binding”.

The values are drawn from patent US20250084182A1 (R P SCHERER TECHNOLOGIES, published 2025).
